The source of these data is patent US6027877, “Use of immobilized mismatch binding protein for detection of mutations and polymorphisms, purification of amplified DNA samples and allele identification” (Gene Check, Inc.).

Data set [1] concerns the target T1, MutS (Escherichia coli, UniProt P23909 P23909:1-853).
T1 sequence: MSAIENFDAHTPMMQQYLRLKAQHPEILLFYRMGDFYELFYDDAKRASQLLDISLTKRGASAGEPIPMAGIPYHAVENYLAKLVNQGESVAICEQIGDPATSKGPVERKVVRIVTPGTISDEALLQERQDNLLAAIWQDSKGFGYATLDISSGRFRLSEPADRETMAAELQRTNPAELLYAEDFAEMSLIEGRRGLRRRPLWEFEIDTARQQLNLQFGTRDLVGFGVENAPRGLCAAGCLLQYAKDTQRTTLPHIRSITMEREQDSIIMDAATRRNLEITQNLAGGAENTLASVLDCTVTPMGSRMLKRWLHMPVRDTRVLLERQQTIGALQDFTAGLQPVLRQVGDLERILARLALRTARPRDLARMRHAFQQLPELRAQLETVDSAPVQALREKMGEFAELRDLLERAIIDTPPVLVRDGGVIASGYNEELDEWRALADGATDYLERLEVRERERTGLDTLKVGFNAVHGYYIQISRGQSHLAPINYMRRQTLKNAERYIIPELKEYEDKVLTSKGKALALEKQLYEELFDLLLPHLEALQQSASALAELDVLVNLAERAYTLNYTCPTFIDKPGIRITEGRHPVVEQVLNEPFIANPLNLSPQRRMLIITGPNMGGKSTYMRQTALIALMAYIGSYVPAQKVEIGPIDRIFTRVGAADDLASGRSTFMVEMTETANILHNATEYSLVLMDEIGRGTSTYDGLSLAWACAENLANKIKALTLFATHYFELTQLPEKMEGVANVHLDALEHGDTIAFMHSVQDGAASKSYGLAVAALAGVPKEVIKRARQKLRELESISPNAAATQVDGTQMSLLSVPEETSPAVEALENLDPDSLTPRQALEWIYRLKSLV
The data set is described as follows: dot blot with immobilized MutS, streptavidin-HRP ECL; as little as 0.2 ng detected; 20 mM Tris pH 7.6, 5 mM MgCl2, 1% BSA, room temperature. The note with it: tags: adsorbed on nitrocellulose (0.45 um, Schleicher & Schuell); single G:T mismatch. As for the experimental part:
(§1) Purified MBP, E. coli MutS, at a concentration of 0.5 μg/10 μl reaction buffer was spotted on the nitrocellulose paper in each well. The wells were incubated at room temperature, and the remaining liquid was pulled through with vacuum. Each well was washed twice with 100 μl reaction buffer by adding the solution to the well and then pouring it out. After the second wash, the remaining solution was pulled through the vacuum.
(§2) Biotinylated oligonucleotides, in 20 μl reaction buffer containing 1% BSA, were added to each well. After 30 minutes at room temperature, remaining liquid was poured out. Each well was washed with 5×100 μl reaction buffer by adding the solution to the well and then pouring it out. After the fifth wash, the remaining solution was pulled through by vacuum.
(§3) The presence of biotin was detected by its binding of Streptavidin. A 100 μl volume of Streptavidin-conjugated HRP (Pierce Chemicals) at a concentration of […] in reaction buffer +1% BSA was added to each well. After 2 hours at room temperature, the solution was poured out and each well washed with 5×100 μl reaction buffer by adding the solution and then pouring it out. After the fifth wash, the remaining solution was pulled through with vacuum.

Data set [2] has as its target T1, MutS. The data set is described as follows: competition; competition clearly visible with 50 ng against 5 ng biotinylated mismatch 30-mer. The note with it: tags: adsorbed on nitrocellulose (0.45 um, Schleicher & Schuell); single G:T mismatch. The protocol: as §1, §2
In competition studies, the DNA binding was as described above, except that a constant amount of biotinylated mismatch-containing oligonucleotide (5 ng) was mixed with varying amounts of unlabeled DNA, with or without a mismatch, and added to the wells.

Data set [3] addresses T1, MutS. The data set is described as follows: no detectable binding even with 200 ng; same buffer, 5 mM MgCl2, room temperature. The conditions noted are these: tags: adsorbed on nitrocellulose (0.45 um, Schleicher & Schuell); perfect duplex. The protocol:
as §1, §2, §3

Changes are numbered by the printed parent chain.

B1: beta-globin 30-mer G:T mismatch duplex (dsDNA)
DNA 1: GCACCTGACTCCTGGGGAGAAGTCTGCCGT
DNA 2: ACGGCAGACTTCTCCTCAGGAGTCAGGTGC
For the molecule B1, in the data set with MutS [1], the binding result is given as “binds”.

B2: unlabeled beta-globin 30-mer G:T mismatch duplex (dsDNA)
DNA 1: B1 DNA 1
DNA 2: B1 DNA 2
Take B2: the binding result with MutS [2] is recorded as “binds”.

B3: beta-globin 30-mer fully matched duplex (dsDNA)
DNA 1: B1 DNA 1
DNA 2: B1 DNA 2 with T16C
Regarding B3, in the data set with MutS [3], the binding result was “no binding”.
